Data reported in US20230303675A1.

How the values were obtained:
[1] = target: mouse Ang2 (angiopoietin-2) (mouse) (UniProt O35608); assay: BLI (Octet), scFv amine-coupled on AR2G biosensor, Ang2 in solution
[2] = target: human Ang2 (angiopoietin-2) (human) (UniProt O15123); assay: BLI (Octet), scFv amine-coupled on AR2G biosensor, Ang2 in solution at 50, 40, 30, 20 nM
UniProt O15123, sequence (O15123 19-496 limits assumed): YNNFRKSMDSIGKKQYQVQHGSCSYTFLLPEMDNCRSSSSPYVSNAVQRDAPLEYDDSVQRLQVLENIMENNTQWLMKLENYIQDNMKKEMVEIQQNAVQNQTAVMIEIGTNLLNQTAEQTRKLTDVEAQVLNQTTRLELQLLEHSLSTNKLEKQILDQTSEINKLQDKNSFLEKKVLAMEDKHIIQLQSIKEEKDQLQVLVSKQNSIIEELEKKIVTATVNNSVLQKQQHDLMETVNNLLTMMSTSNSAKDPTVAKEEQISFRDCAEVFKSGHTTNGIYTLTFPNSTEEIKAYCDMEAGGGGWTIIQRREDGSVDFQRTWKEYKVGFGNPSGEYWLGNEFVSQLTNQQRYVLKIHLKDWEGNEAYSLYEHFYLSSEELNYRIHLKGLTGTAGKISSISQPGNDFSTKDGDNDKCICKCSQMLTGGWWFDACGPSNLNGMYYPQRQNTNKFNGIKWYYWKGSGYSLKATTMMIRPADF

UniProt O35608, sequence (O35608 19-496 limits assumed): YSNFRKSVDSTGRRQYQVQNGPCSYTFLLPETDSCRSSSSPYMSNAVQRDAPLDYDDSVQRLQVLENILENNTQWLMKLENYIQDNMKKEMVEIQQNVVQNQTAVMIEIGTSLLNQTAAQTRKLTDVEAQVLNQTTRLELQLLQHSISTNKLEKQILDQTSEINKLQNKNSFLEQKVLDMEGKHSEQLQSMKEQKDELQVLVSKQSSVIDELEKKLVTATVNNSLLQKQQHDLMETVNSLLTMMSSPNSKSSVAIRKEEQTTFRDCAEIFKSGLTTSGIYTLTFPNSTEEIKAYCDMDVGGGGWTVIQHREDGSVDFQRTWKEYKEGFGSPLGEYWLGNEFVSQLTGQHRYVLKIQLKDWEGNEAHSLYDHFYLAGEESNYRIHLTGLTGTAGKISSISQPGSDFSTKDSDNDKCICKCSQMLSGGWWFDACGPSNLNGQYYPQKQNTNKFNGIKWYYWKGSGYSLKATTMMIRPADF

B1: anti-Ang2 antibody clone O4 ScFv with N76S substitution in the light-chain variable region (scFv, part only; not given: Linker, domain order and His tag, V domains shown, not shown: another chain or arm of the molecule; small tags and cut ends)
VH: QVQLVESGGGLVKPGGSLRLSCAASGFTFSSYSMNWVRQAPGKGLEWVSSISASDGATYYADSVRGRFTISRDNSRSTLYLQMNSLRAEDTAVYYCAKTLAGYSGPMGGMDVWGQGTTVTVSS
VL: DIQMTQSPSSLSASVGDRVTITCRASRDISNYLAWYQQKPGKAPKSLIYGASNLQSGVSSQFSGSGSGTDFTLTISSLQPEDSATYYCQQYYSYPLTFGGGTKVDIK
B1 gave a Kd [1] of 231 pM, a koff [1] of 0.000169 s⁻¹ and a kon [1] of 733000 M⁻¹ s⁻¹. The Kd [2] was 313 pM, the koff [2] was 0.000172 s⁻¹ and the kon [2] was 549000 M⁻¹ s⁻¹.
